Source: US20210087286A1 (Amgen, published 2021)
Numbering of substitutions follows the chain as printed.

T1: human GIPR (human, UniProt P48546 22-466)
T1 sequence: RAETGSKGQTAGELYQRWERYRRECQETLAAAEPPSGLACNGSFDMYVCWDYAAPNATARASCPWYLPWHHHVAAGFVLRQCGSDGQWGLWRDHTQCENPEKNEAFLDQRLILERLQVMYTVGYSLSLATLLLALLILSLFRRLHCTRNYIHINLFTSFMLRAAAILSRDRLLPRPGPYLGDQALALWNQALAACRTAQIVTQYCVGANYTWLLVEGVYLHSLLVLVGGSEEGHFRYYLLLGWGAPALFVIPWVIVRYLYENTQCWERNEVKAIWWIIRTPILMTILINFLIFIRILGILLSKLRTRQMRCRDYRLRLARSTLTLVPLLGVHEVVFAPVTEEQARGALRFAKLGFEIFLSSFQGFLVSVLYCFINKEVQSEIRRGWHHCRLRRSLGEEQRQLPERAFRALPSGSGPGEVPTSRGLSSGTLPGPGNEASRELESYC

T2: murine GIPR (murine, UniProt Q0P543 19-460, limits assumed)
T2 sequence: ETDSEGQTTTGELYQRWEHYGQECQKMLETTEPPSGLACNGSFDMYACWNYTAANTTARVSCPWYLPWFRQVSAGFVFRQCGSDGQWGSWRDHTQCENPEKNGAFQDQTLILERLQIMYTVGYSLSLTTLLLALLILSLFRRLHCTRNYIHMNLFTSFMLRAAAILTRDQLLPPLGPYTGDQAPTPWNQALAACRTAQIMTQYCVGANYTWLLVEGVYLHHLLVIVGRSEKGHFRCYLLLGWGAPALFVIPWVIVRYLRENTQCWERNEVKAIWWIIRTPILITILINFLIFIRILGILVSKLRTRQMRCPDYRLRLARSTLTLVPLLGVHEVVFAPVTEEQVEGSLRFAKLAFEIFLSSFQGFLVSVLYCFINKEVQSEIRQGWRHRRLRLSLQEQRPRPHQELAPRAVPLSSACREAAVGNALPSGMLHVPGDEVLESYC

T3: huGIPR ECD (human, UniProt P48546 21-129, limits assumed)
T3 construct: Soluble analyte of the Biacore assay; also called human GIPR extracellular domain
T3 sequence: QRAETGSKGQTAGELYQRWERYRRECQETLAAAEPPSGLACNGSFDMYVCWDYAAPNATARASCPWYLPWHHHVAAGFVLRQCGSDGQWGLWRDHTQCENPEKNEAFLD

B1: iPS:529397 (antibody, human IgG1, kappa, N297G, V domains shown)
VH: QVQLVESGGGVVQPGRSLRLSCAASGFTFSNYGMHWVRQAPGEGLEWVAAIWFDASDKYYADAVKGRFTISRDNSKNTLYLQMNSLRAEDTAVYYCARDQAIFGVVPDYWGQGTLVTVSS
VL: EIVLTQSPATLSLSPGERATLSCRASQSVSSNLAWYQQKPGQAPRLLIYGAATRATGIPDRFSGSGSGTEFTLTISRLEPEDFAVYYCQQYNNWPLTFGGGTKVEIKR
B2: 2G10.325 (antibody, human IgG1, kappa, N297G, V domains shown)
VH: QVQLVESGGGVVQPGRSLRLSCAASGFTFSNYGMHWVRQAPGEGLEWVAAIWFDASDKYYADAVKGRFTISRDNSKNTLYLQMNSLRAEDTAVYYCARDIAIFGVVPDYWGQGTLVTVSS
VL: EIVMTQSPATLSVSPGERATLSCRASQSVFEHLAWYQQKPGQAPRLLIYEAATRATGIPARFSGSGSGTEFTLTISSLQSEDFAVYYCQQYNQWPLTFGGGTKVEIKR
B3: 2G10.330 (antibody, human IgG1, kappa, N297G, V domains shown)
VH: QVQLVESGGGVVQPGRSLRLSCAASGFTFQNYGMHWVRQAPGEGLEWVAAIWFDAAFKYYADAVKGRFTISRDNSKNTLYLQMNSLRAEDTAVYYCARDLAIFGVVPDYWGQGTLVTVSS
VL: B2 VL with F30D, E31Q, E50Q, N92Q, Q93N
notes: also called SS-26207
B4: 2G10.609 (antibody, human IgG1, kappa, N297G, V domains shown)
VH: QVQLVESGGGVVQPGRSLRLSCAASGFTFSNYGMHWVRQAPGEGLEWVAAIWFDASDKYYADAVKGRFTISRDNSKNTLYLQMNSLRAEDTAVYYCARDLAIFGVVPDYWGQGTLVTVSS
VL: B2 VL with F30E, E31R, F62V, N92Q, Q93N
notes: also called SS-26234
B5: 2G10.335 (antibody, human IgG1, kappa, N297G, V domains shown)
VH: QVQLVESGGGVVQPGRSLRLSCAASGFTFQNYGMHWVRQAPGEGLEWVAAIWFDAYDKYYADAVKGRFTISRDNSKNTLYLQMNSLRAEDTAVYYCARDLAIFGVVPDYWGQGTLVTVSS
VL: B2 VL with F30T, E31S
notes: also called SS-26212
B6: 2G10.338 (antibody, human IgG1, kappa, N297G, V domains shown)
VH: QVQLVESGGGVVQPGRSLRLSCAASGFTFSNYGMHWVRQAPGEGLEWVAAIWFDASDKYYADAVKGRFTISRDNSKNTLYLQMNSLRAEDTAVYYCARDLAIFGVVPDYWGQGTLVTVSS
VL: B2 VL with F30H, E31H
B7: 2G10.608 (antibody, human IgG1, kappa, N297G, V domains shown)
VH: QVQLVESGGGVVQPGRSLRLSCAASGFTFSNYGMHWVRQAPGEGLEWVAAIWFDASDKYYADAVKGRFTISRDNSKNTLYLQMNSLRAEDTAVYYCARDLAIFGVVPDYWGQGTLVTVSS
VL: B2 VL with E31S, F62V, N92Q
notes: also called SS-26233
B8: 2G10.344 (antibody, human IgG1, kappa, N297G, V domains shown)
VH: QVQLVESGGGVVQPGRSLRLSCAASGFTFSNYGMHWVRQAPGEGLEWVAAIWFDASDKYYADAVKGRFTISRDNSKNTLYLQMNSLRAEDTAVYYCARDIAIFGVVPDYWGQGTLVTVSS
VL: B2 VL with F30S, E31S, N92Q
B9: 2G10.329 (antibody, human IgG1, kappa, N297G, V domains shown)
VH: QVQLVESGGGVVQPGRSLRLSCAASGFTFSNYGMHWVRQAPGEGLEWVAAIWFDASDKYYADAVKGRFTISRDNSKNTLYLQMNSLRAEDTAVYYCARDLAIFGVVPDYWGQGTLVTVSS
VL: B2 VL with F30E, E31Q, Q93N
notes: also called SS-26206
B10: 2G10.328 (antibody, human IgG1, kappa, N297G, V domains shown)
VH: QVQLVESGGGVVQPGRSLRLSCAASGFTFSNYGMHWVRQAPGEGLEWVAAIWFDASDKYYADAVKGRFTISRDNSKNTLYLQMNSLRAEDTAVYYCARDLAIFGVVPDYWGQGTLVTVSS
VL: B2 VL with F30S, N92Q, Q93N
B11: 2G10.327 (antibody, human IgG1, kappa, N297G, V domains shown)
VH: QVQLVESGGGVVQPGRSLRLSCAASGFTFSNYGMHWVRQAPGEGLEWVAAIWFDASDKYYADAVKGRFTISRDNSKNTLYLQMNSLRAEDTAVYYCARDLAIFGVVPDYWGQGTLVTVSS
VL: B2 VL with F30H, E31S
B12: 2G10.610 (antibody, human IgG1, kappa, N297G, V domains shown)
VH: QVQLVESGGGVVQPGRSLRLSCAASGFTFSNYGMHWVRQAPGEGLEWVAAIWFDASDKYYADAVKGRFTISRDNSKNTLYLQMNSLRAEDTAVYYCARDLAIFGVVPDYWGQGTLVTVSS
VL: B2 VL with E31T, F62V, Q93N
notes: also called SS-26235
B13: 2G10.345 (antibody, human IgG1, kappa, N297G, V domains shown)
VH: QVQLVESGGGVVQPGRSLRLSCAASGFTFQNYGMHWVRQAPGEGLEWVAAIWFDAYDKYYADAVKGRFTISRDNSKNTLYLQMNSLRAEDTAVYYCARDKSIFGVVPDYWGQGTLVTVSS
VL: B2 VL with F30N, E31R, Q93N
B14: 2G10.347 (antibody, human IgG1, kappa, N297G, V domains shown)
VH: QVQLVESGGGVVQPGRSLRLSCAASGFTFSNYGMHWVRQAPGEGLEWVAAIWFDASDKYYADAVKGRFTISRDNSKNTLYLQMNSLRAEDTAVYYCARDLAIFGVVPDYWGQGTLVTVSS
VL: B2 VL with F30S, E31S, H32N, E50G, Q93N
B15: 2G10.607 (antibody, human IgG1, kappa, N297G, V domains shown)
VH: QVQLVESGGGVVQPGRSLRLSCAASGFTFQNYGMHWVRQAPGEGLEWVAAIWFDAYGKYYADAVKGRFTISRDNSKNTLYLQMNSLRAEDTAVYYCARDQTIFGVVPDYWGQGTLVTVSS
VL: B2 VL with F30D, E31R, F62V
notes: also called SS-26232
B16: 2G10.602 (antibody, human IgG1, kappa, N297G, V domains shown)
VH: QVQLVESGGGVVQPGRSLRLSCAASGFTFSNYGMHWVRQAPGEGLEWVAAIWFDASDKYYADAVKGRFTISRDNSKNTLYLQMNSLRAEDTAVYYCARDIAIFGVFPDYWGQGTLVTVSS
VL: B2 VL with F62V, Q93N
notes: also called SS-26227
B17: 2G10.605 (antibody, human IgG1, kappa, N297G, V domains shown)
VH: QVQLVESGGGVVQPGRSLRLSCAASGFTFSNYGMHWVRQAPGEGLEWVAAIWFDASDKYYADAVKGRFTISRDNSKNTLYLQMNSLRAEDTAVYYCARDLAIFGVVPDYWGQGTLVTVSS
VL: B2 VL with F30D, E31V, H32N, E50N, F62V, N92Q, Q93N
notes: also called SS-26230
B18: 2G10.343 (antibody, human IgG1, kappa, N297G, V domains shown)
VH: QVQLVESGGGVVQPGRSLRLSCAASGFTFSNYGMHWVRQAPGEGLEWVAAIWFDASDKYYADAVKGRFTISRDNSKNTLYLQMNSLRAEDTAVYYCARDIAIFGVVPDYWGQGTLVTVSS
VL: B2 VL with F30L, Q93N
B19: 2G10.337 (antibody, human IgG1, kappa, N297G, V domains shown)
VH: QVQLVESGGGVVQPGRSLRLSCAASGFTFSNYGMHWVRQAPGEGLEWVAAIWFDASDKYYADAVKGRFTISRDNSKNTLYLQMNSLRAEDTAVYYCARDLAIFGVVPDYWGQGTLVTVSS
VL: B2 VL with F30D, E31V, H32N
notes: also called SS-26214
B20: 2G10.604 (antibody, human IgG1, kappa, N297G, V domains shown)
VH: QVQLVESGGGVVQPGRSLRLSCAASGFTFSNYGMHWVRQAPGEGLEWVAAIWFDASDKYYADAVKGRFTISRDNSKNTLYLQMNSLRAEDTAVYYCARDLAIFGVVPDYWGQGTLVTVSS
VL: B2 VL with F30N, E31R, F62V, N92Q, Q93N
notes: also called SS-26229
B21: 2G10.331 (antibody, human IgG1, kappa, N297G, V domains shown)
VH: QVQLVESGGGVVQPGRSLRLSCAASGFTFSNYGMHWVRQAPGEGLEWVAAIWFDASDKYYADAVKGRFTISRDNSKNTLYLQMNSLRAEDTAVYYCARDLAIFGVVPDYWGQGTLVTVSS
VL: B2 VL with F30D, E31L, N92Q, Q93N
notes: also called SS-26208
B22: 2G10.339 (antibody, human IgG1, kappa, N297G, V domains shown)
VH: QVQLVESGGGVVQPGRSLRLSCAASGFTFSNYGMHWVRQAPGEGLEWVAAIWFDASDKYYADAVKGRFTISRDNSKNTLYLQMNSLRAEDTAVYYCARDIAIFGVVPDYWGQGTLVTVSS
VL: B2 VL with E31Q, H32N, E50Q
B23: 2G10.333 (antibody, human IgG1, kappa, N297G, V domains shown)
VH: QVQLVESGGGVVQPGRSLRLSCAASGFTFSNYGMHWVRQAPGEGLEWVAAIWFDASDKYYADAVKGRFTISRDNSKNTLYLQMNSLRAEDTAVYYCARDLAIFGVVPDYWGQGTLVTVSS
VL: B2 VL with F30S, E31R, N92Q, Q93H
notes: also called SS-26210
B24: 2G10.606 (antibody, human IgG1, kappa, N297G, V domains shown)
VH: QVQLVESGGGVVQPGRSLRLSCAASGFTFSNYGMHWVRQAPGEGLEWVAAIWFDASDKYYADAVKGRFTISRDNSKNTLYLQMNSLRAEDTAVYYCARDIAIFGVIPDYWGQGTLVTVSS
VL: B2 VL with F30L, E31T, F62V, N92Q, Q93N
notes: also called SS-26231
B25: 2G10.332 (antibody, human IgG1, kappa, N297G, V domains shown)
VH: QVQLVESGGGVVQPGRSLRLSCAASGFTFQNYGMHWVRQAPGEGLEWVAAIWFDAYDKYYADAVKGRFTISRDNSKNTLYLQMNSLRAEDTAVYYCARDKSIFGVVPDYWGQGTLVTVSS
VL: B2 VL with F30L, E31S, Q93N
notes: also called SS-26209
B26: 2G10.341 (antibody, human IgG1, kappa, N297G, V domains shown)
VH: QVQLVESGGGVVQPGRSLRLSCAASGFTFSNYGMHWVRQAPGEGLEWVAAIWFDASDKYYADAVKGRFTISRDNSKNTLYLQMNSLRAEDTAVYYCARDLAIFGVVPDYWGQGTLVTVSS
VL: B2 VL with F30D, E31V
B27: 2G10.326 (antibody, human IgG1, kappa, N297G, V domains shown)
VH: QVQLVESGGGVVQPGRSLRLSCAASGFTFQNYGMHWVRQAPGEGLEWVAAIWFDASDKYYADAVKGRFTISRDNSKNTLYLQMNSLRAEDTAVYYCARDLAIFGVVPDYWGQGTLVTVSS
VL: B2 VL with F30L, E31S, N92Q
B28: 2G10.601 (antibody, human IgG1, kappa, N297G, V domains shown)
VH: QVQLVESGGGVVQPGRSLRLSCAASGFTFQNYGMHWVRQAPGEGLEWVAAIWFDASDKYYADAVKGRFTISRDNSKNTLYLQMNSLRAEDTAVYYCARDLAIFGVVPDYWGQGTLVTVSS
VL: B2 VL with E31S, F62V, N92Q, Q93N
notes: also called SS-26226
B29: 2G10.340 (antibody, human IgG1, kappa, N297G, V domains shown)
VH: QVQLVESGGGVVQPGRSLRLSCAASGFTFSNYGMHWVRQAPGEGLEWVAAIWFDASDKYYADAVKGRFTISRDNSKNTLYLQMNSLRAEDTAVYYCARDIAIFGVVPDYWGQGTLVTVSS
VL: B2 VL with F30H, E31T, H32N, E50N, N92Q, Q93N
B30: 2G10.603 (antibody, human IgG1, kappa, N297G, V domains shown)
VH: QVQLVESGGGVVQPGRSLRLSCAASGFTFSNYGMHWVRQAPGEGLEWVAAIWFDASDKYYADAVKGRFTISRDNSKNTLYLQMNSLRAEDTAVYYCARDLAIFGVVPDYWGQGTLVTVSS
VL: B2 VL with F30D, E31R, F62V, N92Q, Q93N
notes: also called SS-26228
B31: 2G10.334 (antibody, human IgG1, kappa, N297G, V domains shown)
VH: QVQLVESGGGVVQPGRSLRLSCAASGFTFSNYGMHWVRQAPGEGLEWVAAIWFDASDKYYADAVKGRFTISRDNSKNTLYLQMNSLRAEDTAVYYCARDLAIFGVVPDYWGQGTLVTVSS
VL: B2 VL with F30N, E31L, H32N, E50Q
notes: also called SS-26211
B32: 2G10.342 (antibody, human IgG1, kappa, N297G, V domains shown)
VH: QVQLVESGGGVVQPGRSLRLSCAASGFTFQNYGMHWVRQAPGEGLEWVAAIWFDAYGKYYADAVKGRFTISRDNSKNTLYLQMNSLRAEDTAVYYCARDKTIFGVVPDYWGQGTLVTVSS
VL: B2 VL with F30E, E31R, N92Q
B33: 2G10.336 (antibody, human IgG1, kappa, N297G, V domains shown)
VH: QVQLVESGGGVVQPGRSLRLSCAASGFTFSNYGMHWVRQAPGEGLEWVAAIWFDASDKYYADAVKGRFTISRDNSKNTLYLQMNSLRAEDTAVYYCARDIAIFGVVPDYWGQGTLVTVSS
VL: B2 VL with F30Q, E31S, N92Q, Q93N
notes: also called SS-26213

Key:
[1] = biological target: T1, human GIPR; test: cell-based or functional assay
[2] = biological target: T2, murine GIPR; test: cell-based or functional assay
[3] = biological target: T1, human GIPR; test: cell-based or functional assay; remark: listed apart in the source
[4] = biological target: T3, huGIPR ECD; test: SPR (Biacore T200), mAb captured via goat anti-huFc, 200 nM huGIPR ECD analyte
Description: Immobilization of Goat-anti-huFc antibody to a S-CM5 sensor chip surface was performed according to manufacturer's instructions. The Biacore instrument running buffer is 0.005% P20/PBS 1×, pH7.4, no calcium chloride, no magnesium chloride. Briefly, carboxyl groups on the sensor chip surfaces were activated by injecting 60 μL of a mixture containing 0.2 M N-ethyl-N′-(dimethylaminopropyl) carbodiimide (EDC) and 0.05 M N-hydroxysuccinimide (NHS). Goat-anti-huFc antibody was diluted in 10 mM sodium acetate, pH 4.0 at 20 μg/ml and injected over the activated chip surface at 30 uL/min for 6 minutes. Excess reactive groups on the surfaces were deactivated by injecting 60 μL of 1 M ethanolamine. Final immobilized level was ˜8000 resonance units (RU).
Binding assays were carried out on the immobilized goat anti-huFc antibody surface by Biacore T200. The experiment was performed at 25° C. The instrument running buffer was 0.005% P20/PBS. The goat anti-huFc capture antibody was covalently attached to the sensor chip surface via standard amine coupling to flow cells channel 1-4. The anti-huGIPR antibodies were diluted in sample buffer (0.1 mg/ml BSA, 0.005% P20, PBS) to ˜10 nM then captured to flow cells channel 2, 3, 4. Flow cell channel 1 was as a blank reference surface without injection of anti-huGIPR antibody. The captured antibody response range was ˜250 RU. Then 200 nM huGIPR ECD was injected over the goat anti-huFc antibody captured anti-huGIPR antibody surfaces at flow rate 50 ul/min for 3 minutes. After a 10 minutes dissociation, each surface was regenerated by injecting 10 mM Glycine, pH 1.5 for 30 seconds twice.

Binder | human cAMP IC50 [1] [nM] | murine cAMP [2] [nM] | cAMP IC50 [3] [nM] | koff [4] [s⁻¹]
B1 | 50 | 108 |  | 
B2 |  |  | 26.2 | < 5e-05
B3 |  |  | 18.6 | < 5e-05
B4 |  |  | 26.9 | 6e-05
B5 |  |  | 25.9 | 6e-05
B6 |  |  | 23.4 | 8e-05
B7 |  |  | 21.7 | < 5e-05
B8 |  |  | 21.9 | 6e-05
B9 |  |  | 26.8 | 6e-05
B10 |  |  | 24.4 | 7e-05
B11 |  |  | 19.3 | < 5e-05
B12 |  |  | 12.9 | < 5e-05
B13 |  |  | 18.9 | 8e-05
B14 |  |  | 28.4 | 0.0001
B15 |  |  | 19.4 | 6e-05
B16 |  |  | 16.8 | < 5e-05
B17 |  |  | 25.6 | 7e-05

Binder | human cAMP IC50 [1] [nM] | murine cAMP [2] [nM] | cAMP IC50 [3] [nM] | koff [4] [s⁻¹]
B18 |  |  | 37.6 | 6e-05
B19 |  |  | 32.5 | < 5e-05
B20 |  |  | 27.1 | < 5e-05
B21 |  |  | 19.7 | 5e-05
B22 |  |  | 22.6 | 7e-05
B23 |  |  | 12.1 | < 5e-05
B24 |  |  | 20.4 | < 5e-05
B25 |  |  | 12.9 | 6e-05
B26 |  |  | 24.7 | 7e-05
B27 |  |  | 26.6 | 6e-05
B28 |  |  | 21.4 | 6e-05
B29 |  |  | 25.9 | 6e-05
B30 |  |  | 30.5 | < 5e-05
B31 |  |  | 13.7 | 6e-05
B32 |  |  | 11.6 | < 5e-05
B33 |  |  | 29.6 | 0.0002
